Numbered stars: 1 amine (or outer) side, 2 acyl side, 3 side chain; on linkers, the order of the positions; unused ones are H or OH. Bridge positions count the residues as written; N and C are the ends. Square brackets hold non-standard residues; d marks the D form. Ends that are not written are not given here. * marks the point of attachment. TATA = O=C(CC[*:1])N1CN(C(=O)CC[*:2])CN(C(=O)CC[*:3])C1; hArg = N=C(N)NCCCC[C@H](N)C(=O)O; Agb = N=C(N)NCC[C@H](N)C(=O)O; Pent4ynoyl = C#CCCC(=O)*
B1: BCY19147 (peptide)
peptide: Ac-CNAVLCSWA[hArg]ANSFCK(Pent4ynoyl)
modifications: linker 1-6-15 via TATA; also: trimer: each monomer attached at C-terminus to central hinge B (PEG23)
B2: BCY19148 (peptide)
peptide: Ac-CNAVLCSWA[hArg]ANSFCK(Pent4ynoyl)
modifications: linker 1-6-15 via TATA; also: tetramer: each monomer attached at C-terminus to central hinge C (PEG23)
B3: BCY19071 (peptide)
peptide: Ac-CNSYTCYIKHILG[Agb]C
modifications: linker 1-6-15 via TATA; also: dimer: each monomer attached at C-terminus to central hinge A (PEG23)
B4: BCY17345 (peptide)
peptide: ACNAVLCSWARANSFCA
modifications: linker 2-7-16 via TATA; also: dimer: each monomer attached at C-terminus to central hinge A (PEG23)
B5: BCY17346 (peptide)
peptide: ACNAVLCSWARANSFCA
modifications: linker 2-7-16 via TATA; also: trimer: each monomer C-terminus attached to hinge B (PEG23)
B6: BCY17347 (peptide)
peptide: ACNAVLCSWARANSFCA
modifications: linker 2-7-16 via TATA; also: tetramer: each monomer attached at its C-terminus to central hinge moiety C (PEG23), further groups not given here

Target: human ACE2 (angiotensin-converting enzyme 2) (human, UniProt Q9BYF1 18-805)
Sequence (Q9BYF1 18-805): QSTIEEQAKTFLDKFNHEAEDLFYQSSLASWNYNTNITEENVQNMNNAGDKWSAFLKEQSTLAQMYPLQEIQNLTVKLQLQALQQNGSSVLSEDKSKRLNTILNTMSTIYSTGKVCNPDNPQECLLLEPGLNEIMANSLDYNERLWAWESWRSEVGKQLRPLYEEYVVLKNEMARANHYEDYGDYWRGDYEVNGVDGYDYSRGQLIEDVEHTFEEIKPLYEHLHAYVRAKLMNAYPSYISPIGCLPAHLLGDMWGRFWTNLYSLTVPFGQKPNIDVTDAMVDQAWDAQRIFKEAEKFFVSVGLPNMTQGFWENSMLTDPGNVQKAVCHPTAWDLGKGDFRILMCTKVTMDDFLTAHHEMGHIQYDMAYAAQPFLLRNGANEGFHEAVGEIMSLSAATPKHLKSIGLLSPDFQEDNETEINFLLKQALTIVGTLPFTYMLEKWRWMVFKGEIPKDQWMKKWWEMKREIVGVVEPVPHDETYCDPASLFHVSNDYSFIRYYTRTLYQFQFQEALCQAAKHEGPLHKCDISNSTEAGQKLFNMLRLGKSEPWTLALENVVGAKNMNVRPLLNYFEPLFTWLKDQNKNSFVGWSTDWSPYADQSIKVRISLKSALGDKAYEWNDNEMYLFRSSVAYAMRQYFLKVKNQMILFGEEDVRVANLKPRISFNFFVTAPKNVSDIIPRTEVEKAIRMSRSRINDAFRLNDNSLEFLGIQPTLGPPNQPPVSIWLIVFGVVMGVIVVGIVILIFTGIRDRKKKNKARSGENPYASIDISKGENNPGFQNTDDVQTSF
Test: cell-based or functional assay

Binder | Pseudoviral Neutralisation Assay, Geomean IC50 [nM]
B1 | 17.7
ACNAVLCSWARANSFCA (linker 2-7-16 via TATA) [BCY15429] | 1280
B2 | 10.1
B3 | 24
B4 | 6.96
B5 | 12
B6 | 3.75
